Reference: patent publication US20260317437 (published 2026)

B1: VH Y30Q (antibody, V domains shown)
VH: EVQLVESGGGLVQPGGSLRLSCAASGFNIQYNYIHWVRQAPGKGLEWVAEFSPYSGSTYYADSVKGRFTISADTSKNTAYLQMNSLRAEDTAVYYCARSAAIVDWYDYFKGFDYWGQGTLVTVSS
VL: DIQMTQSPSSLSASVGDRVTITCRASQSVSSAVAWYQQKPGKAPKLLIYSASSLYSGVPSRFSGSRSGTDFTLTISSLQPEDFATYYCQQYGSYLYTFGQGTKVEIK
B2: VH Y30W (antibody, V domains shown)
VH: EVQLVESGGGLVQPGGSLRLSCAASGFNIWYNYIHWVRQAPGKGLEWVAEFSPYSGSTYYADSVKGRFTISADTSKNTAYLQMNSLRAEDTAVYYCARSAAIVDWYDYFKGFDYWGQGTLVTVSS
VL: DIQMTQSPSSLSASVGDRVTITCRASQSVSSAVAWYQQKPGKAPKLLIYSASSLYSGVPSRFSGSRSGTDFTLTISSLQPEDFATYYCQQYGSYLYTFGQGTKVEIK
B3: VH Y100bA (antibody, V domains shown)
VH: EVQLVESGGGLVQPGGSLRLSCAASGFNIYYNYIHWVRQAPGKGLEWVAEFSPYSGSTYYADSVKGRFTISADTSKNTAYLQMNSLRAEDTAVYYCARSAAIVDWADYFKGFDYWGQGTLVTVSS
VL: DIQMTQSPSSLSASVGDRVTITCRASQSVSSAVAWYQQKPGKAPKLLIYSASSLYSGVPSRFSGSRSGTDFTLTISSLQPEDFATYYCQQYGSYLYTFGQGTKVEIK
B4: VL Y91Q (antibody, V domains shown)
VH: EVQLVESGGGLVQPGGSLRLSCAASGFNIYYNYIHWVRQAPGKGLEWVAEFSPYSGSTYYADSVKGRFTISADTSKNTAYLQMNSLRAEDTAVYYCARSAAIVDWYDYFKGFDYWGQGTLVTVSS
VL: DIQMTQSPSSLSASVGDRVTITCRASQSVSSAVAWYQQKPGKAPKLLIYSASSLYSGVPSRFSGSRSGTDFTLTISSLQPEDFATYYCQQQGSYLYTFGQGTKVEIK
B5: VL S93K (antibody, V domains shown)
VH: EVQLVESGGGLVQPGGSLRLSCAASGFNIYYNYIHWVRQAPGKGLEWVAEFSPYSGSTYYADSVKGRFTISADTSKNTAYLQMNSLRAEDTAVYYCARSAAIVDWYDYFKGFDYWGQGTLVTVSS
VL: DIQMTQSPSSLSASVGDRVTITCRASQSVSSAVAWYQQKPGKAPKLLIYSASSLYSGVPSRFSGSRSGTDFTLTISSLQPEDFATYYCQQYGKYLYTFGQGTKVEIK
B6: VL S93R (antibody, V domains shown)
VH: EVQLVESGGGLVQPGGSLRLSCAASGFNIYYNYIHWVRQAPGKGLEWVAEFSPYSGSTYYADSVKGRFTISADTSKNTAYLQMNSLRAEDTAVYYCARSAAIVDWYDYFKGFDYWGQGTLVTVSS
VL: DIQMTQSPSSLSASVGDRVTITCRASQSVSSAVAWYQQKPGKAPKLLIYSASSLYSGVPSRFSGSRSGTDFTLTISSLQPEDFATYYCQQYGRYLYTFGQGTKVEIK
B7: VL Y91K (antibody, V domains shown)
VH: EVQLVESGGGLVQPGGSLRLSCAASGFNIYYNYIHWVRQAPGKGLEWVAEFSPYSGSTYYADSVKGRFTISADTSKNTAYLQMNSLRAEDTAVYYCARSAAIVDWYDYFKGFDYWGQGTLVTVSS
VL: DIQMTQSPSSLSASVGDRVTITCRASQSVSSAVAWYQQKPGKAPKLLIYSASSLYSGVPSRFSGSRSGTDFTLTISSLQPEDFATYYCQQKGSYLYTFGQGTKVEIK
B8: VL Y91S (antibody, V domains shown)
VH: EVQLVESGGGLVQPGGSLRLSCAASGFNIYYNYIHWVRQAPGKGLEWVAEFSPYSGSTYYADSVKGRFTISADTSKNTAYLQMNSLRAEDTAVYYCARSAAIVDWYDYFKGFDYWGQGTLVTVSS
VL: DIQMTQSPSSLSASVGDRVTITCRASQSVSSAVAWYQQKPGKAPKLLIYSASSLYSGVPSRFSGSRSGTDFTLTISSLQPEDFATYYCQQSGSYLYTFGQGTKVEIK
B9: VH Y31L (antibody, V domains shown)
VH: EVQLVESGGGLVQPGGSLRLSCAASGFNIYLNYIHWVRQAPGKGLEWVAEFSPYSGSTYYADSVKGRFTISADTSKNTAYLQMNSLRAEDTAVYYCARSAAIVDWYDYFKGFDYWGQGTLVTVSS
VL: DIQMTQSPSSLSASVGDRVTITCRASQSVSSAVAWYQQKPGKAPKLLIYSASSLYSGVPSRFSGSRSGTDFTLTISSLQPEDFATYYCQQYGSYLYTFGQGTKVEIK
B10: VL S93E (antibody, V domains shown)
VH: EVQLVESGGGLVQPGGSLRLSCAASGFNIYYNYIHWVRQAPGKGLEWVAEFSPYSGSTYYADSVKGRFTISADTSKNTAYLQMNSLRAEDTAVYYCARSAAIVDWYDYFKGFDYWGQGTLVTVSS
VL: DIQMTQSPSSLSASVGDRVTITCRASQSVSSAVAWYQQKPGKAPKLLIYSASSLYSGVPSRFSGSRSGTDFTLTISSLQPEDFATYYCQQYGEYLYTFGQGTKVEIK
B11: VH V99K (antibody, V domains shown)
VH: EVQLVESGGGLVQPGGSLRLSCAASGFNIYYNYIHWVRQAPGKGLEWVAEFSPYSGSTYYADSVKGRFTISADTSKNTAYLQMNSLRAEDTAVYYCARSAAIKDWYDYFKGFDYWGQGTLVTVSS
VL: DIQMTQSPSSLSASVGDRVTITCRASQSVSSAVAWYQQKPGKAPKLLIYSASSLYSGVPSRFSGSRSGTDFTLTISSLQPEDFATYYCQQYGSYLYTFGQGTKVEIK
B12: VL S93N (antibody, V domains shown)
VH: EVQLVESGGGLVQPGGSLRLSCAASGFNIYYNYIHWVRQAPGKGLEWVAEFSPYSGSTYYADSVKGRFTISADTSKNTAYLQMNSLRAEDTAVYYCARSAAIVDWYDYFKGFDYWGQGTLVTVSS
VL: DIQMTQSPSSLSASVGDRVTITCRASQSVSSAVAWYQQKPGKAPKLLIYSASSLYSGVPSRFSGSRSGTDFTLTISSLQPEDFATYYCQQYGNYLYTFGQGTKVEIK
B13: VH Y31V (antibody, V domains shown)
VH: EVQLVESGGGLVQPGGSLRLSCAASGFNIYVNYIHWVRQAPGKGLEWVAEFSPYSGSTYYADSVKGRFTISADTSKNTAYLQMNSLRAEDTAVYYCARSAAIVDWYDYFKGFDYWGQGTLVTVSS
VL: DIQMTQSPSSLSASVGDRVTITCRASQSVSSAVAWYQQKPGKAPKLLIYSASSLYSGVPSRFSGSRSGTDFTLTISSLQPEDFATYYCQQYGSYLYTFGQGTKVEIK
B14: VH Y30K (antibody, V domains shown)
VH: EVQLVESGGGLVQPGGSLRLSCAASGFNIKYNYIHWVRQAPGKGLEWVAEFSPYSGSTYYADSVKGRFTISADTSKNTAYLQMNSLRAEDTAVYYCARSAAIVDWYDYFKGFDYWGQGTLVTVSS
VL: DIQMTQSPSSLSASVGDRVTITCRASQSVSSAVAWYQQKPGKAPKLLIYSASSLYSGVPSRFSGSRSGTDFTLTISSLQPEDFATYYCQQYGSYLYTFGQGTKVEIK
B15: VH Y30F (antibody, V domains shown)
VH: EVQLVESGGGLVQPGGSLRLSCAASGFNIFYNYIHWVRQAPGKGLEWVAEFSPYSGSTYYADSVKGRFTISADTSKNTAYLQMNSLRAEDTAVYYCARSAAIVDWYDYFKGFDYWGQGTLVTVSS
VL: DIQMTQSPSSLSASVGDRVTITCRASQSVSSAVAWYQQKPGKAPKLLIYSASSLYSGVPSRFSGSRSGTDFTLTISSLQPEDFATYYCQQYGSYLYTFGQGTKVEIK
B16: VL S93D (antibody, V domains shown)
VH: EVQLVESGGGLVQPGGSLRLSCAASGFNIYYNYIHWVRQAPGKGLEWVAEFSPYSGSTYYADSVKGRFTISADTSKNTAYLQMNSLRAEDTAVYYCARSAAIVDWYDYFKGFDYWGQGTLVTVSS
VL: DIQMTQSPSSLSASVGDRVTITCRASQSVSSAVAWYQQKPGKAPKLLIYSASSLYSGVPSRFSGSRSGTDFTLTISSLQPEDFATYYCQQYGDYLYTFGQGTKVEIK
B17: VH Y100bV (antibody, V domains shown)
VH: EVQLVESGGGLVQPGGSLRLSCAASGFNIYYNYIHWVRQAPGKGLEWVAEFSPYSGSTYYADSVKGRFTISADTSKNTAYLQMNSLRAEDTAVYYCARSAAIVDWVDYFKGFDYWGQGTLVTVSS
VL: DIQMTQSPSSLSASVGDRVTITCRASQSVSSAVAWYQQKPGKAPKLLIYSASSLYSGVPSRFSGSRSGTDFTLTISSLQPEDFATYYCQQYGSYLYTFGQGTKVEIK
B18: VL S93F (antibody, V domains shown)
VH: EVQLVESGGGLVQPGGSLRLSCAASGFNIYYNYIHWVRQAPGKGLEWVAEFSPYSGSTYYADSVKGRFTISADTSKNTAYLQMNSLRAEDTAVYYCARSAAIVDWYDYFKGFDYWGQGTLVTVSS
VL: DIQMTQSPSSLSASVGDRVTITCRASQSVSSAVAWYQQKPGKAPKLLIYSASSLYSGVPSRFSGSRSGTDFTLTISSLQPEDFATYYCQQYGFYLYTFGQGTKVEIK
B19: VL Y91F (antibody, V domains shown)
VH: EVQLVESGGGLVQPGGSLRLSCAASGFNIYYNYIHWVRQAPGKGLEWVAEFSPYSGSTYYADSVKGRFTISADTSKNTAYLQMNSLRAEDTAVYYCARSAAIVDWYDYFKGFDYWGQGTLVTVSS
VL: DIQMTQSPSSLSASVGDRVTITCRASQSVSSAVAWYQQKPGKAPKLLIYSASSLYSGVPSRFSGSRSGTDFTLTISSLQPEDFATYYCQQFGSYLYTFGQGTKVEIK
B20: VL Y94W (antibody, V domains shown)
VH: EVQLVESGGGLVQPGGSLRLSCAASGFNIYYNYIHWVRQAPGKGLEWVAEFSPYSGSTYYADSVKGRFTISADTSKNTAYLQMNSLRAEDTAVYYCARSAAIVDWYDYFKGFDYWGQGTLVTVSS
VL: DIQMTQSPSSLSASVGDRVTITCRASQSVSSAVAWYQQKPGKAPKLLIYSASSLYSGVPSRFSGSRSGTDFTLTISSLQPEDFATYYCQQYGSWLYTFGQGTKVEIK
B21: VH Y30R (antibody, V domains shown)
VH: EVQLVESGGGLVQPGGSLRLSCAASGFNIRYNYIHWVRQAPGKGLEWVAEFSPYSGSTYYADSVKGRFTISADTSKNTAYLQMNSLRAEDTAVYYCARSAAIVDWYDYFKGFDYWGQGTLVTVSS
VL: DIQMTQSPSSLSASVGDRVTITCRASQSVSSAVAWYQQKPGKAPKLLIYSASSLYSGVPSRFSGSRSGTDFTLTISSLQPEDFATYYCQQYGSYLYTFGQGTKVEIK
B22: VH Y30V (antibody, V domains shown)
VH: EVQLVESGGGLVQPGGSLRLSCAASGFNIVYNYIHWVRQAPGKGLEWVAEFSPYSGSTYYADSVKGRFTISADTSKNTAYLQMNSLRAEDTAVYYCARSAAIVDWYDYFKGFDYWGQGTLVTVSS
VL: DIQMTQSPSSLSASVGDRVTITCRASQSVSSAVAWYQQKPGKAPKLLIYSASSLYSGVPSRFSGSRSGTDFTLTISSLQPEDFATYYCQQYGSYLYTFGQGTKVEIK

Biological target: GCGR extracellular domain (human, UniProt P47871)
Sequence (P47871 26-477): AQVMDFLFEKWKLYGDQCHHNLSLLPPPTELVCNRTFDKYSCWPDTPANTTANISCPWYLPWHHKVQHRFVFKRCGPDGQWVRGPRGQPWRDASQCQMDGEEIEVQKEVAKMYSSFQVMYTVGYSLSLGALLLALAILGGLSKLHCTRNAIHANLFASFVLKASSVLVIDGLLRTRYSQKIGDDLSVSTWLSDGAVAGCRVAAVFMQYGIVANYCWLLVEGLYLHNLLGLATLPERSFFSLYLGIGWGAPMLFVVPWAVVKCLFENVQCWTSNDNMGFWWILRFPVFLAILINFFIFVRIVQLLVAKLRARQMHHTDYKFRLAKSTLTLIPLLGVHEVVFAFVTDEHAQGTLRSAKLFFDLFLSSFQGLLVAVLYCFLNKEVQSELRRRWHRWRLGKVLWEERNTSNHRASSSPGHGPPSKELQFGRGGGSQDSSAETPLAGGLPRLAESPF
Experiment: SPR

Binder | Kd [nM]
B1 | 23.4
B2 | 6.44
B3 | 3.54
B4 | 2.36
B5 | 2.91
B6 | 0.766
B7 | 2.08
B8 | 2.31
B9 | 2640
B10 | 0.968
B11 | 17.3
B12 | 0.962
B13 | 406
B14 | 363
B15 | 1.23
B16 | 1.3
B17 | 1.08
B18 | 5.59
B19 | 1.69
B20 | 2.55
B21 | 110
B22 | 6.68
